Source: patent publication US11389509B1, “Methods for treatment of social dysfunction neurological disorders and seizures” (University of Virginia Patent Foundation, priority 2017, dated 2022)
Entries after “also recorded” stand apart in the source; their conditions may differ.

Assays:
mice [1] = assay: Three-chamber sociability assay; type: in vivo, mouse; conditions: for social deficits / social behavior / social preference / social deficits: Ifng−/− mice; for social deficits / social behavior: diazepam 1.25 mg/kg i.p. 30 minutes prior to testing; for social preference / social deficits: single CSF (i.c.m.) injection of IFN-γ 20 ng, tested 24 hours post-injection
Method: The three-chamber sociability test was conducted as previously described^31. Briefly, mice were transported to the testing room and habituated for at least one hour. The room was maintained in dim light and a white noise generator used to mitigate any unforeseen noises. Test boxes were fabricated, in-house, by a machine shop. Test mice were placed in the center chamber with the two outer chambers containing empty wire cages (Spectrum Diversified Designs) and allowed to explore for ten minutes (habituation phase). After the habituation phase, mice were return to the center chamber. A novel mouse (an 8-10 week old male C57BL/6J˜18-22 g) was placed under one cup and an object placed under the other. Prior to testing, the novel mouse was habituated to the cup by being placed under the cup for 10 minutes, 3 times a day for 5 days. Mice were allowed to explore for an additional ten minutes (social phase). A video tracking system (CleverSys) was used to quantify the time spent around each target. For 3-chamber experiments comparing social behavior between wild-type and SCID mice, data collected using males and females were combined because no significant effects were found between genders.
A rat monoclonal antibody to murine VLA4 (clone PS/2) was affinity purified from hybridoma supernatants and was used with the kind permission of Dr. Klaus Ley (La Jolla Institute of Allergy and Immunology, San Diego, Calif.). Mice were given two separate injections (i.p.; 0.2 mg in saline per mouse), four days apart, of either anti-VLA4 or rat anti-HRP for control (clone HRPN; BioXcell), then tested twenty-four hours post final injection.
(§1) Mice were anaesthetized with a ketamine/xylazine [ketamine (100 mg/kg) and xylazine (10 mg/kg)] injection (i.p.) or isoflurane (2%), then placed into a stereotaxic frame with the head at an approximately 45° angle. The skin above cisterna magna was cleaned and sanitize before a 1 cm incision was made. The underlying muscles were separated with forceps, retracted, and a small Hamilton syringe (33 G) was used to slowly inject 1 uL of saline or IFN-γ (20 ng; eBioscience) into the cisterna magna (i.c.m.). After injection the syringe was held in place for 5 minutes to avoid back-flow of CSF. After the syringe was removed, muscles were put back in place and skin was sutured. Mice were placed on a heating pad and given ketoprofen and baytril for recovery.
Diazepam (1.25 mg/kg) was delivered i.p. for 30 minutes prior to testing for social behavior.

[2] = tested on: layer 2/3 prefrontal cortical neurons; assay: Whole-cell patch-clamp of tonic inhibitory currents in acute brain slices; type: cell-based, mouse
Method: Visualized whole-cell patch-clamp recordings were performed on layer 2/3 prefrontal cortical neurons prepared from acute brain slices (adult) using the protective recovery method^42. Recordings were performed in 34° C. artificial cerebrospinal fluid (ACSF) containing (in mM) 131.5 NaCl, 25 NaHCO3, 12 D-glucose, 2.5 KCl, 1.25 NaH2PO4, 2 CaCl2, and 1 MgCl2. ACSF also contained 3 mM kynurenic acid to block synaptic excitation and […] NO-711 to enhance tonic inhibition^43. Slices were incubated in this ACSF for 5-10 minutes prior to placement in the recording chamber. The patch pipette solution with elevated chloride contained (in mM) 140 CsCl, 4 NaCl, 1 MgCl2, 10 HEPES, 0.05 EGTA, 2 Mg-ATP, and 0.4 Mg-GTP^43. Once recordings equilibrated, baseline holding current in ACSF was measured for 3.5 minutes, after which ACSF containing IFN-γ (20 pg/mL) was applied for 8.5 minutes and then washed. Data presented show the mean holding current during the last minute of control (ACSF) and drug (ACSF+IFN-γ) conditions.

mice [3] = assay: PTZ induced seizures; type: in vivo, mouse; conditions: IFN-γ i.c.m. 24 hours prior to PTZ 40 mg/kg i.p.
Method: IFN-γ was injected (i.c.m.) into the CSF through the cisterna magna (i.c.m.), as described above, 24 hours prior to inducing seizures. Control mice were injected with the same volume of saline. To induce seizures, mice were injected with PTZ (40 mg/kg; i.p.). After injection, mice were placed into an empty housing cage and recorded for video analysis. Seizures were analyzed by a blinded observer using a behavior scoring system previously published^41.

[4] = tested on: layer I neocortical neurons; assay: c-fos immunohistochemistry in PFC after CSF injection; type: in vivo, mouse; conditions: IFN-γ injected into the CSF (i.c.m.) 2 hours prior to sacrificing
Method: Mice were sacrificed under Euthasol then transcardially perfused with PBS with heparin. Brains were removed and drop fixed in 4% PFA for 48 hours. After fixation, brains were washed with PBS, cryoprotected with 30% sucrose, then frozen in O.C.T. compound (Sakura Finetek) and sliced ([…]) with a cryostat (Leica). Free-floating sections were maintained in PBS+Azide (0.02%) until further processing. Immunohistochemistry for c-fos (1:1000 dilution; Millipore) on free-floating sections was performed as previously described^39.
as §1

Ifng−/− mice = assay: Resting-state fMRI functional connectivity of PFC/insular nodes; type: in vivo, mouse; conditions: single injection of recombinant IFN-γ into the CSF
Source text: The protocol for rsfMRI was adapted from Zhan et al.^32. Mice were maintained under light anesthesia with (1-1.25%) isoflurane and images were acquired on a 7.0 Tesla MRI Clinscan system (Bruker, Etlingen, Germany) using a 30-mm inner-diameter mouse whole-body radiofrequency coil. High-resolution structural images were acquired by collecting 16×0.7 mm thick coronal slices using TR/TE 5,500/65 ms and an […]. A BOLD rsfMRI time series of 16×0.7 mm thick coronal slices were collected using TR/TE 4,000/17 ms and a 60o flip angle. For analysis, a structural template^33 was custom labeled using “The Mouse Brain” by Paxinos and Franklin as reference (FIGS. 6A-6C). The non-rigid transformation between the template and each individual mouse was estimated using the open source Advanced Normalization Tools (ANTs) package^34 that was then used to propagate the regional labels to each subject. […] The correlation matrix was determined from the clean fMRI data using the regions labels. […] When comparing networks from multiple sample groups, the threshold was determined by calculating the maximum threshold that leaves one of the networks connected (i.e., it is possible to reach any node in the network from any other node). […]

Row | Molecule | social deficits / social behavior (mice [1]) | social deficits / social behavior (mice [1]; listed as Diazepam) | tonic inhibition ([2]; VgatCre::Ifngr1fl/fl line, Cre− mice) | tonic inhibitory current ([2]; VgatCre::Ifngr1 fl/fl mice (IFN-γ receptor deleted from inhibitory neurons)) | tonic GABAergic inhibitory current (holding current) ([2]; slices from wild-type mice, IFN-γ 20 pg/mL in ACSF for 8.5 minutes) | latency to reach each seizure stage / seizure onset (mice [3]) | maximum severity of seizures (mice [3]) | susceptibility to PTZ induced seizures (mice [3]) | c-fos+ cells in layer I of the PFC [4] | c-fos+ cells in layer I of the PFC ([4]; listed as recombinant IFN-γ) | hyper-connectivity in the PFC (connections of local PFC/insular nodes) (Ifng−/− mice; Jennrich test P=0.02) | hyper-connectivity in the PFC (connections of local PFC/insular nodes) (Ifng−/− mice; Jennrich test P=0.02, listed as recombinant IFN-γ) | social deficits (mice [1]; Ifngr1−/− mice, IFN-γ injected into the CSF) | social preference / social deficits (mice [1]) | social preference / social deficits (mice [1]; listed as recombinant IFN-γ)
1 | CN1C(=O)CN=C(c2ccccc2)c2cc(Cl)ccc21 [diazepam, reference compound] | rescued social deficits | successfully rescued social behavior | – | – | – | – | – | – | – | – | – | – | – | – | –
2 | IFN-γ: recombinant interferon-gamma cytokine (eBioscience), injected into the CSF via cisterna magna (protein, UniProt P01580 23-155, looked up) Interferon gamma: HGTVIESLESLNNYFNSSGIDVEEKSLFLDIWRNWQKDGDMKILQSQIISFYLRLFEVLKDNQAISNNISVIESHLITTFFSNSKAKKDAFMSIAKFEVNNPQVQRQAFNELIRVVHQLLPESSLRKRKRSRC | – | – | increased tonic inhibition | prevented IFN-γ from augmenting tonic inhibitory current | increases tonic GABAergic inhibitory current; also recorded: augmented tonic current | increased latency to reach each seizure stage; also recorded: delayed seizure onset | reduced the maximum severity of seizures; also recorded: lowered seizure severity | less susceptible to PTZ induced seizures | increased the number of c-fos+ cells in Layer I of the PFC | activated layer I neocortical neurons | connections were reduced | reduce overall hyper-connectivity in the PFC | not rescued | sufficient to rescue social deficits | sufficient to restore their social preference
